The experiment has as its target SUDV VP35:[change] peptide (residues 1 to 34) (Sudan virus (SUDV), strain Gulu, UniProt Q5XX07 1-34). Description: BLI. As to conditions: both partners purified.

B1: His-SUDV-NP(34-367) (domain or fragment)
chain: GIVRQRVIPVYVVNDLEGICQHIIQAFEAGVDFQDNADSFLLLLCLHHAYQGDHRLFLKSDAVQYLEGHGFRFEVREKENVHRLDELLPNVTGGKNLRRTLAAMPEEETTEANAGQFLSFASLFLPKLVVGEKACLEKVQRQIQVHAEQGLIQYPTSWQSVGHMMVIFRLMRTNFLIKFLLIHQGMHMVAGHDANDTVISNSVAQARFSGLLIVKTVLDHILQKTDLGVRLHPLARTAKVKNEVSSFKAALGSLAKHGEYAPFARLLNLSGVNNLEHGLYPQLSAIALGVATAHGSTLAGVNVGEQYQQLREAATEAEKQLQQYAETRELDNLG
What is called Kd is the concentration at which binding is half-saturated. Read a low Kd as tighter binding. On to B1, for which the Kd was ~266 nM.

The values are drawn from PMC6650547 (mBio, 2019).
